For 4 molecules, Kd, koff and kon results are on record in US20260242492A1 (JOINT STOCK COMPANY BIOCAD, published 2026).

Assay [1] addresses T1, extracellular domain of the human PD-1 protein (hPD1ex-H6F) (human, UniProt Q15116 21-170).
T1 construct: Made in CHO cells, molecular weight 20.6 kDa as printed; also called hPDlex-H6F
The assay is described as follows: BLI (Octet RED 384), antibody-like molecule on ProA sensors, hPD1ex-H6F analyte 485.4 nM, 1:1 model. As for the experimental part: (§1) Experiments were carried out using a kinetic buffer solution (hereinafter referred to as 1×KB); volume fraction of added Tween 20 was 0.1%; mass fraction of added BSA (bovine serum albumin) was 0.1%; pH 7.4. Before the measurement, the ProA sensors were regenerated with a solution of 50 mM glycine and hydrochloric acid, pH 1.8 (5 seconds in the regenerating solution, 5 seconds in 1×KB, three repetitions).
(§2) In the case of the hPDlex-H6F and hCSF1R_His antigens, the Protein A (ProA) biosensors (ForteBio) were immersed in a solution with antibody-like molecules at a concentration of 10 µg/ml for 300 seconds to immobilize same. The baseline was recorded in 1×KB for 120 seconds. Sensors loaded with the antibody-like molecule were then immersed into wells containing a solution of the target antigen (analyte) in a kinetic buffer for 300 seconds. Measurements were performed for solutions with hPDlex-H6F analyte at concentrations of 10 µg/ml (485.4 nM), for solutions with hCSF1R_His analyte at concentrations of 10 µg/ml (174.2 nM). Complex dissociation in 1×KB was then detected for 600 seconds.
(§3) To obtain numerical values of kinetic constants (kon is the on/association rate constant, kdis is the dissociation rate constant, KD is the equilibrium dissociation constant or affinity constant), the resulting sensograms were processed according to the 1:1 interaction model using Global Fit (selection of one set of kon, kdis, KD constants to analyze several sensograms of different concentrations) of the ForteBio Octet Data Analysis 9.0 software.

For assay [2], the target named is T2, biotinylated peptide [NH2]CEPANPSEKNSPSTQYCYSIQS[CH2CH2]biotin comprising a fragment of the human CD20 … (human, [NH2] at the N-terminus; [CH2CH2]biotin at the C-terminus (so in the source)).
T2 construct: Immobilized on streptavidin (SAX) sensors; also called CD20 peptide
T2 peptide: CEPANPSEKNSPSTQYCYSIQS
Nature of the assay: BLI (Octet RED 384), biotinylated CD20 peptide on SAX sensors, antibody-like molecule as analyte, 1:1 model, global fit. Here is the method: as §1
In the case of biotinylated […], the peptide at a concentration of 2.5 μg/ml was immobilized on the surface of SAX sensors (High Precision Streptavidin (SAX) biosensors, ForteBio) for 300 seconds. The baseline was recorded in a 1×KB solution for 120 seconds. Sensors loaded with peptide were then immersed into wells containing the solution of antibody-like molecule (analyte) in 1×KB for 300 seconds. Measurements were performed for solutions with analyte (antibody-like molecule in case of CD20 peptide) at concentrations […] and 75 µg/ml. Complex dissociation was recorded in 1×KB for 60 seconds.
as §3

Assay [3] concerns the target T3, extracellular domain of the human CSF1R protein (hCSF1R_His) (human, UniProt P07333 20-512).
T3 construct: range 20-512; Made in CHO cells, molecular weight 57.4 kDa as printed; not shown: C-terminal His-tag and FLAG-tag
Nature of the assay: BLI (Octet RED 384), antibody-like molecule on ProA sensors, hCSF1R_His analyte 174.2 nM, 1:1 model. As for the experimental part: as §1, §2, §3

T3 sequence (P07333 20-512 limits assumed): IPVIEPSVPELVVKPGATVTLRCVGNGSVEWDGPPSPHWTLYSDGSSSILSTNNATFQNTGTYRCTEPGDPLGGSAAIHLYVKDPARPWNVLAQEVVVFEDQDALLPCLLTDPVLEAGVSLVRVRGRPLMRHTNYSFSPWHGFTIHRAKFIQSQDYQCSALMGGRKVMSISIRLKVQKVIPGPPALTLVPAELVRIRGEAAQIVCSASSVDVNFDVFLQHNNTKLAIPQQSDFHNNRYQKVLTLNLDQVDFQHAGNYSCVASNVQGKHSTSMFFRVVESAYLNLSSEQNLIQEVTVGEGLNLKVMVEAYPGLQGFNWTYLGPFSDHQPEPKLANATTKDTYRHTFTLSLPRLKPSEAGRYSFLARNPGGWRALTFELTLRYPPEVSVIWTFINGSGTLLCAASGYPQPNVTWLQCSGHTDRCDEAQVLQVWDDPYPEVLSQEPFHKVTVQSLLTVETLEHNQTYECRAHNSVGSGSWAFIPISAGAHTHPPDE
T1 sequence (Q15116 21-170 limits assumed, form in doubt): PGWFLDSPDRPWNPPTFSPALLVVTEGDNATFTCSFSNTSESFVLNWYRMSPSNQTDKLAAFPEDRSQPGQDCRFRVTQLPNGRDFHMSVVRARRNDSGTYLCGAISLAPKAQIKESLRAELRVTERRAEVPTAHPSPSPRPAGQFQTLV

B1: antibody-like molecule 08-001 (binds PD1 and CD20) (bispecific antibody, human IgG1, kappa, L234A L235A)
heavy 1: QVQLVQSGGGLVQPGGSLRLSCAASGFTFSSYWMYWVRQVPGKGLEWVSAIDTGGGRTYYADSVKGRFAISRVNAKNTMYLQMNSLRAEDTAVYYCARDEGGGTGWGVLKDWPYGLDAWGQGTLVTVSSASTKGPSVFPLAPSSKSTSGGTAALGCLVKDYFPEPVTVSWNSGALTSGVHTFPAVLQSSGLYSLSSVVTVPSSSLGTQTYICNVNHKPSNTKVDKRVEPKSCDKTHTCPPCPAPEAAGGPSVFLFPPKPKDTLYITREPEVTCVVVDVSHEDPEVKFNWYVDGVEVHNAKTKPREEQYNSTYRVVSVLTVLHQDWLNGKEYKCKVSNKALPAPIEKTISKAKGQPREPQVCTLPPSRDELTKNQVSLSCAVKGFYPSDIAVEWESNGQPENNYKTTPPVLDSDGSFFLVSKLTVDKSRWQQGNVFSCSVMHEALHNHYTQKSLSLSPGK
light 1: QPVLTQPLSVSVALGQTARITCGGNNIGSKNVHWYQQKPGQAPVLVIYRDSNRPSGIPERFSGSNSGNTATLTISRAQAGDEADYYCQVWDSSTAVFGTGTKLTVLQRTVAAPSVFIFPPSDEQLKSGTASVVCLLNNFYPREAKVQWKVDNALQSGNSQESVTEQDSKDSTYSLSSTLTLSKADYEKHKVYACEVTHQGLSSPVTKSFNRGEC
heavy 2: not shown
light 2: DIQMTQSPSSLSASVGDRVTITCRASSSVSYMHWYQQKPGKAPKPLIYAPSNLASGVPSRFSGSGSGTDFTLTISSLQPEDFATYYCQQWSFNPPTFGQGTKVEIKQRQVKPEAWLSKGPSPGPGRLQLVCHVSGFYPKPVWVMWMRGEQEQQGTQLGDILPNADWTWYLRATLDVADGEAAGLSCRVKHSSLEGQDIILYWRGSC
In the case of B1, in assay [1], binding was characterised by a dissociation constant (Kd) of 0.0159 µM, the koff is 0.000601 s⁻¹ and the kon came out at 37800 M⁻¹ s⁻¹. In assay [2], this molecule had a Kd of 0.848 µM, a koff of 0.139 s⁻¹ and a kon of 164000 M⁻¹ s⁻¹.

B2: antibody-like molecule 08-003 (binds PD1 and CSF1R) (bispecific antibody, human IgG1, kappa, L234A L235A)
heavy 1: QVQLVQSGGGLVQPGGSLRLSCAASGFTFSSYWMYWVRQVPGKGLEWVSAIDTGGGRTYYADSVKGRFAISRVNAKNTMYLQMNSLRAEDTAVYYCARDEGGGTGWGVLKDWPYGLDAWGQGTLVTVSSASTKGPSVFPLAPSSKSTSGGTAALGCLVKDYFPEPVTVSWNSGALTSGVHTFPAVLQSSGLYSLSSVVTVPSSSLGTQTYICNVNHKPSNTKVDKRVEPKSCDKTHTCPPCPAPEAAGGPSVFLFPPKPKDTLYITREPEVTCVVVDVSHEDPEVKFNWYVDGVEVHNAKTKPREEQYNSTYRVVSVLTVLHQDWLNGKEYKCKVSNKALPAPIEKTISKAKGQPREPQVCTLPPSRDELTKNQVSLSCAVKGFYPSDIAVEWESNGQPENNYKTTPPVLDSDGSFFLVSKLTVDKSRWQQGNVFSCSVMHEALHNHYTQKSLSLSPGK
light 1: QPVLTQPLSVSVALGQTARITCGGNNIGSKNVHWYQQKPGQAPVLVIYRDSNRPSGIPERFSGSNSGNTATLTISRAQAGDEADYYCQVWDSSTAVFGTGTKLTVLQRTVAAPSVFIFPPSDEQLKSGTASVVCLLNNFYPREAKVQWKVDNALQSGNSQESVTEQDSKDSTYSLSSTLTLSKADYEKHKVYACEVTHQGLSSPVTKSFNRGEC
heavy 2: not shown
light 2: QAGLTQPPSVSVAPGQTARITCGGNNIGSKSVHWYQQKPGQAPVLVVYGDSDRPSGIPERFSGSNSGNTATLTISRVEAGDEADYYCQVWDISSDHVVFGGGTQLTVLQRQVKPEAWLSKGPSPGPGRLQLVCHVSGFYPKPVWVMWMRGEQEQQGTQLGDILPNADWTWYLRATLDVADGEAAGLSCRVKHSSLEGQDIILYWRGSC
notes: Four distinct chains: Prolgolimab Fab arm (hole) and anti-CSF1R Fab-like arm with b2m/CD1b alpha3 dimerization unit (knob)
For B2, in assay [1], the affinity, expressed as Kd, was 0.0124 µM; the koff was determined as 0.000487 s⁻¹; the kon is 39200 M⁻¹ s⁻¹. In assay [3], this molecule returned a Kd of 0.00144 µM, a koff of 0.000238 s⁻¹ and a kon of 165000 M⁻¹ s⁻¹.

B3: antibody-like molecule 08-002 (binds CD20 and PD1) (bispecific antibody, human IgG1, kappa, L234A L235A)
heavy 1: EVQLVESGGGLVQPGGSLRLSCAASGYTFTSYNMHWVRQAPGKGLEWVGAIYPGNGDTSYNQKFKGRFTISVDKSKNTLYLQMNSLRAEDTAVYYCARVVYYSNSYWYFDVWGQGTLVTVSSASTKGPSVFPLAPSSKSTSGGTAALGCLVKDYFPEPVTVSWNSGALTSGVHTFPAVLQSSGLYSLSSVVTVPSSSLGTQTYICNVNHKPSNTKVDKRVEPKSCDKTHTCPPCPAPEAAGGPSVFLFPPKPKDTLYITREPEVTCVVVDVSHEDPEVKFNWYVDGVEVHNAKTKPREEQYNSTYRVVSVLTVLHQDWLNGKEYKCKVSNKALPAPIEKTISKAKGQPREPQVCTLPPSRDELTKNQVSLSCAVKGFYPSDIAVEWESNGQPENNYKTTPPVLDSDGSFFLVSKLTVDKSRWQQGNVFSCSVMHEALHNHYTQKSLSLSPGK
light 1: DIQMTQSPSSLSASVGDRVTITCRASSSVSYMHWYQQKPGKAPKPLIYAPSNLASGVPSRFSGSGSGTDFTLTISSLQPEDFATYYCQQWSFNPPTFGQGTKVEIKRTVAAPSVFIFPPSDEQLKSGTASVVCLLNNFYPREAKVQWKVDNALQSGNSQESVTEQDSKDSTYSLSSTLTLSKADYEKHKVYACEVTHQGLSSPVTKSFNRGEC
heavy 2: not shown
light 2: QPVLTQPLSVSVALGQTARITCGGNNIGSKNVHWYQQKPGQAPVLVIYRDSNRPSGIPERFSGSNSGNTATLTISRAQAGDEADYYCQVWDSSTAVFGTGTKLTVLQQRQVKPEAWLSKGPSPGPGRLQLVCHVSGFYPKPVWVMWMRGEQEQQGTQLGDILPNADWTWYLRATLDVADGEAAGLSCRVKHSSLEGQDIILYWRGSC
notes: Four distinct chains: Ocrelizumab Fab arm (hole) and Prolgolimab Fab-like arm with b2m/CD1b alpha3 dimerization unit (knob)
In assay [1], B3 showed a Kd of 0.0169 µM, a koff of 0.000658 s⁻¹ and a kon of 39000 M⁻¹ s⁻¹. In assay [2], this molecule came in with a Kd of 0.845 µM, a koff of 0.0986 s⁻¹ and a kon of 117000 M⁻¹ s⁻¹.

B4: antibody-like molecule 08-004 (binds CSF1R and PD1) (bispecific antibody, human IgG1, kappa, L234A L235A)
heavy 1: QVQLVESGGGLVRPGGSLRLSCAASEFTFDDYAMSWVRQAPGKGLEWVSAISWNGGSTNYADSVKGRFTISRDNAKNSLYLQMNSLRAEDTALYYCASTVEVAHRRLYKYLEVWGQGTLVTVSSASTKGPSVFPLAPSSKSTSGGTAALGCLVKDYFPEPVTVSWNSGALTSGVHTFPAVLQSSGLYSLSSVVTVPSSSLGTQTYICNVNHKPSNTKVDKRVEPKSCDKTHTCPPCPAPEAAGGPSVFLFPPKPKDTLYITREPEVTCVVVDVSHEDPEVKFNWYVDGVEVHNAKTKPREEQYNSTYRVVSVLTVLHQDWLNGKEYKCKVSNKALPAPIEKTISKAKGQPREPQVCTLPPSRDELTKNQVSLSCAVKGFYPSDIAVEWESNGQPENNYKTTPPVLDSDGSFFLVSKLTVDKSRWQQGNVFSCSVMHEALHNHYTQKSLSLSPGK
light 1: QAGLTQPPSVSVAPGQTARITCGGNNIGSKSVHWYQQKPGQAPVLVVYGDSDRPSGIPERFSGSNSGNTATLTISRVEAGDEADYYCQVWDISSDHVVFGGGTQLTVLRTVAAPSVFIFPPSDEQLKSGTASVVCLLNNFYPREAKVQWKVDNALQSGNSQESVTEQDSKDSTYSLSSTLTLSKADYEKHKVYACEVTHQGLSSPVTKSFNRGEC
heavy 2: not shown
light 2: QPVLTQPLSVSVALGQTARITCGGNNIGSKNVHWYQQKPGQAPVLVIYRDSNRPSGIPERFSGSNSGNTATLTISRAQAGDEADYYCQVWDSSTAVFGTGTKLTVLQQRQVKPEAWLSKGPSPGPGRLQLVCHVSGFYPKPVWVMWMRGEQEQQGTQLGDILPNADWTWYLRATLDVADGEAAGLSCRVKHSSLEGQDIILYWRGSC
notes: Four distinct chains: anti-CSF1R Fab arm (hole) and Prolgolimab Fab-like arm with b2m/CD1b alpha3 dimerization unit (knob)
B4: in assay [1], the Kd was found to be 0.0137 µM, the koff worked out at 0.000568 s⁻¹ and the kon was determined as 41400 M⁻¹ s⁻¹. In assay [3], this molecule registered a Kd of 0.00223 µM, a koff of 0.000443 s⁻¹ and a kon of 199000 M⁻¹ s⁻¹.
